Experimental findings from US20070244048A1 (published 2007) are described below.

One test concerns the target T1, mouse NMUR1-CTG (mouse, UniProt O55040 1-428).
T1 sequence (looked up): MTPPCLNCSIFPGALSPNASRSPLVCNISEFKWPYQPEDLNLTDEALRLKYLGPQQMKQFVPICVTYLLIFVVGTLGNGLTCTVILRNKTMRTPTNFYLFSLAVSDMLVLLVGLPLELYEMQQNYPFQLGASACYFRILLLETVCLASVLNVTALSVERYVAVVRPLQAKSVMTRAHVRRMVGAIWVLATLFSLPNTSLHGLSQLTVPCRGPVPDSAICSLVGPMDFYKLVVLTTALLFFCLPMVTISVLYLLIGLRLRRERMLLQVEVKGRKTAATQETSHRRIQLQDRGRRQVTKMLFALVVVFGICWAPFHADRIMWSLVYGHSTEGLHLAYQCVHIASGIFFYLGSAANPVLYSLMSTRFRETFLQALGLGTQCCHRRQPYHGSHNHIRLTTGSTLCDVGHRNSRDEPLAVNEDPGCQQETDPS
Kind of test: cell-based or functional assay.

For a further test, the target named is human NMUR2 (human, UniProt Q9GZQ4 1-415). Description: cell-based or functional assay.
Chain of human NMUR2 (Q9GZQ4 whole entry): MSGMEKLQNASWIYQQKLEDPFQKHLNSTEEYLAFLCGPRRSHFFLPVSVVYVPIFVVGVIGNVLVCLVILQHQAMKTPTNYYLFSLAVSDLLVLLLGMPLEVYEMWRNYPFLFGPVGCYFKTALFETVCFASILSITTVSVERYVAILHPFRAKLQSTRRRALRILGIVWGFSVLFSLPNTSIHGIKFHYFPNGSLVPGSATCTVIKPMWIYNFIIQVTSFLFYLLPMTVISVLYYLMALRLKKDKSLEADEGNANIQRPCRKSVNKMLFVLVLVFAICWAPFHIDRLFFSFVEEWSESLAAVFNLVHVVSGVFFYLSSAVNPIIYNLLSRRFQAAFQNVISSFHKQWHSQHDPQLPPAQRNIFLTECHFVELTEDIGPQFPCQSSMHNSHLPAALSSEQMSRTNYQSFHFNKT

No end group written: not given here.

Turning to FRVDEEFQSPFASQSRGYFLFRPRN-NH2 (also called hNMU-25; native hNMU) [human NMU-25], the figures for the “IC50 (nM), functional” value with mouse NMUR1-CTG and with human NMUR2 were 2.9 nM and 0.8 nM, respectively.
